Measured values as given in paper PMC8808184.
One block for each substance: values may come before it.

Assays:
[1] = biological target: E1 domain of chicken APP (chicken); assay: BLI; biotinylated E1 domain ([…] nM) immobilised on streptavidin tips, CNTN FN1–FN3 in solution; room temperature; 150 mM NaCl, 10 mM Na-Hepes pH 7.5, 1 mg/ml BSA, 0.02% Tween-20; BLItz or Octet K2; KD from the signal at equilibrium
[2] = biological target: E1 domain of chicken APLP2, biotinylated (chicken); assay: BLI; BLItz; biotinylated amyloid E1 domain ([…] nM) immobilised on streptavidin tips, CNTN FN1-FN3 in solution; room temperature; 150 mM NaCl, 10 mM Na-Hepes pH 7.5, 1 mg/ml BSA, 0.02% Tween-20; average constants of the kinetic fit (the paper says koff attained or exceeded the accuracy limits of the instruments)
[3] = biological target: E1 domain of chicken APP, biotinylated (chicken); assay: as above
[4] = biological target: E1 domain of chicken APP, biotinylated (chicken); assay: BLI; BLItz; biotinylated amyloid E1 domain ([…] nM) immobilised on streptavidin tips, CNTN FN1-FN3 in solution; room temperature; 150 mM NaCl, 10 mM Na-Hepes pH 7.5, 1 mg/ml BSA, 0.02% Tween-20; steady state KD from the maximal signal at equilibrium against concentration
[5] = biological target: E1 domain of human APLP2, biotinylated (human) (UniProt Q06481); assay: as above
Chain of E1 domain of human APLP2, biotinylated (human) (Q06481 46-205): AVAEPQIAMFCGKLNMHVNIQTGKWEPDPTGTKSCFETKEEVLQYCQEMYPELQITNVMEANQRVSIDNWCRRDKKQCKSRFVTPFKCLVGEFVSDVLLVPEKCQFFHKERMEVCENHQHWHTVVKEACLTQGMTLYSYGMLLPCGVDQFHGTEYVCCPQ

[6] = biological target: E1 domain of human APLP1, biotinylated (human) (UniProt P51693); assay: as above
Chain of E1 domain of human APLP1, biotinylated (human) (P51693 50-212): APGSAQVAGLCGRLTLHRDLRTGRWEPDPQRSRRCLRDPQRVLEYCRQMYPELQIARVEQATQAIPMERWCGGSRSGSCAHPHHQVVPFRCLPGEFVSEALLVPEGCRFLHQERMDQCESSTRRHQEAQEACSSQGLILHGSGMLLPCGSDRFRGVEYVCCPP

[7] = biological target: E1 domain of human APLP2, biotinylated (human) (UniProt Q06481); assay: BLI; BLItz; biotinylated amyloid E1 domain ([…] nM) immobilised on streptavidin tips, CNTN FN1-FN3 in solution; room temperature; 150 mM NaCl, 10 mM Na-Hepes pH 7.5, 1 mg/ml BSA, 0.02% Tween-20; average constants of the kinetic fit (the paper says koff attained or exceeded the accuracy limits of the instruments)
[8] = biological target: E1 domain of human APLP1, biotinylated (human) (UniProt P51693); assay: as above
[9] = biological target: FN1–FN3 region of zebrafish CNTN4 (zebrafish); assay: BLI; biotinylated zebrafish CNTN4(FN1–FN3) immobilised on streptavidin sensors, E1 domains of zebrafish APPb or APLP2 in solution; Octet K2; KD from the signal at equilibrium
[10] = biological target: E1 domain of human APP, biotinylated (human) (UniProt P05067); assay: BLI; BLItz; biotinylated amyloid E1 domain ([…] nM) immobilised on streptavidin tips, CNTN FN1-FN3 in solution; room temperature; 150 mM NaCl, 10 mM Na-Hepes pH 7.5, 1 mg/ml BSA, 0.02% Tween-20; steady state KD from the maximal signal at equilibrium against concentration
[11] = biological target: E1 domain of human APP, biotinylated (human) (UniProt P05067); assay: BLI; BLItz; biotinylated amyloid E1 domain ([…] nM) immobilised on streptavidin tips, CNTN FN1-FN3 in solution; room temperature; 150 mM NaCl, 10 mM Na-Hepes pH 7.5, 1 mg/ml BSA, 0.02% Tween-20; average constants of the kinetic fit (the paper says koff attained or exceeded the accuracy limits of the instruments)
[12] = biological target: E1 domain of chicken APLP2 (chicken); assay: BLI; biotinylated E1 domain ([…] nM) immobilised on streptavidin tips, CNTN FN1–FN3 in solution; room temperature; 150 mM NaCl, 10 mM Na-Hepes pH 7.5, 1 mg/ml BSA, 0.02% Tween-20; BLItz or Octet K2; KD from the signal at equilibrium
[13] = biological target: FN1-FN3 domains of zebrafish CNTN4, biotinylated (zebrafish); assay: BLI; Octet K2; biotinylated FN1-FN3 domains of zebrafish CNTN4 immobilised on streptavidin sensors, E1 domains of zebrafish APPb or APLP2 in solution; steady state KD from the maximal signal at equilibrium against concentration
[14] = biological target: FN1-FN3 domains of zebrafish CNTN4, biotinylated (zebrafish); assay: BLI; Octet K2; biotinylated FN1-FN3 domains of zebrafish CNTN4 immobilised on streptavidin sensors, E1 domains of zebrafish APPb or APLP2 in solution; average constants of the kinetic fit
[15] = biological target: E1 domain of zebrafish APPb, biotinylated (zebrafish); assay: BLI; BLItz; biotinylated amyloid E1 domain ([…] nM) immobilised on streptavidin tips, CNTN FN1-FN3 in solution; room temperature; 150 mM NaCl, 10 mM Na-Hepes pH 7.5, 1 mg/ml BSA, 0.02% Tween-20; average constants of the kinetic fit (the paper says koff attained or exceeded the accuracy limits of the instruments)
[16] = biological target: E1 domain of zebrafish APPb (zebrafish); assay: BLI; biotinylated E1 domain ([…] nM) immobilised on streptavidin tips, CNTN FN1–FN3 in solution; room temperature; 150 mM NaCl, 10 mM Na-Hepes pH 7.5, 1 mg/ml BSA, 0.02% Tween-20; BLItz or Octet K2; KD from the signal at equilibrium
[17] = biological target: extracellular region of amyloid precursor protein (APP) fused to human IgG1 Fc or to FcYTS (UniProt P12023); assay: AlphaScreen or HTRF; ectodomain-FcYTS on Strep-Tactin donor beads and ectodomain-Fc on protein A acceptor beads; dialysed HEK293 conditioned media; both tag orientations; 1 h at room temperature; 150 mM NaCl, 20 mM Na-Hepes pH 7.5, 2 mM CaCl2, 2 mM MgCl2, BSA, Triton X-100, Tween-20; a pair counts with signal over background of at least two in each orientation
[18] = biological target: E1 domain of mouse APP, biotinylated (mouse) (UniProt P12023); assay: BLI; BLItz; biotinylated amyloid E1 domain ([…] nM) immobilised on streptavidin tips, CNTN FN1-FN3 in solution; room temperature; 150 mM NaCl, 10 mM Na-Hepes pH 7.5, 1 mg/ml BSA, 0.02% Tween-20; average constants of the kinetic fit (the paper says koff attained or exceeded the accuracy limits of the instruments)

Chain of FN1-FN3 region of mouse CNTN3 (Q07409 20-1002): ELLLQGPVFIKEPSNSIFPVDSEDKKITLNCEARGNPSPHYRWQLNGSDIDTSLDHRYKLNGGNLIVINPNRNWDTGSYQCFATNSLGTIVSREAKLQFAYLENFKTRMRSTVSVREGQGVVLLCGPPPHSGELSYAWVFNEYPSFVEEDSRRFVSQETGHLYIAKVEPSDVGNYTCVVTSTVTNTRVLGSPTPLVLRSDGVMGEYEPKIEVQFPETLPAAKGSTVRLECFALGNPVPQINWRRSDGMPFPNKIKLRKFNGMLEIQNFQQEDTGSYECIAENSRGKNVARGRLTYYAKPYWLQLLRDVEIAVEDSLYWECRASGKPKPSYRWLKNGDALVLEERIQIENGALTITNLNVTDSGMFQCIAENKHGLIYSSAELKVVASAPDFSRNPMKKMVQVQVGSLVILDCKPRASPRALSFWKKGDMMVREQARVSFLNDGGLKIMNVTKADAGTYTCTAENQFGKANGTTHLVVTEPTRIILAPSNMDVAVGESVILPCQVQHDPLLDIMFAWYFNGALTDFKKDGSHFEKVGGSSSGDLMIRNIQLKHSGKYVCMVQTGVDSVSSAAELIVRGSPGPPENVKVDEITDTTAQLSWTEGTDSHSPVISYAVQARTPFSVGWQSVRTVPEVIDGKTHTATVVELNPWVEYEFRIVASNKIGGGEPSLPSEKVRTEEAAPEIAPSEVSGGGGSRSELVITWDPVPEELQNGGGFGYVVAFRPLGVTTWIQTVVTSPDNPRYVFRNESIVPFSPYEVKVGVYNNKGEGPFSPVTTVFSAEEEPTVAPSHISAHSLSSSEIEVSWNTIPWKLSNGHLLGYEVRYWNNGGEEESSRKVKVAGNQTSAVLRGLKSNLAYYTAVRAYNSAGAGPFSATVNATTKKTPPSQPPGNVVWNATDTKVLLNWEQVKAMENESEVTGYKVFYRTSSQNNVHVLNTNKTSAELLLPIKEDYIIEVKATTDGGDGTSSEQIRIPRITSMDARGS
Chain of ectodomain of contactin 4 (CNTN4) fused to human IgG1 Fc or to FcYTS (Q69Z26 19-1000): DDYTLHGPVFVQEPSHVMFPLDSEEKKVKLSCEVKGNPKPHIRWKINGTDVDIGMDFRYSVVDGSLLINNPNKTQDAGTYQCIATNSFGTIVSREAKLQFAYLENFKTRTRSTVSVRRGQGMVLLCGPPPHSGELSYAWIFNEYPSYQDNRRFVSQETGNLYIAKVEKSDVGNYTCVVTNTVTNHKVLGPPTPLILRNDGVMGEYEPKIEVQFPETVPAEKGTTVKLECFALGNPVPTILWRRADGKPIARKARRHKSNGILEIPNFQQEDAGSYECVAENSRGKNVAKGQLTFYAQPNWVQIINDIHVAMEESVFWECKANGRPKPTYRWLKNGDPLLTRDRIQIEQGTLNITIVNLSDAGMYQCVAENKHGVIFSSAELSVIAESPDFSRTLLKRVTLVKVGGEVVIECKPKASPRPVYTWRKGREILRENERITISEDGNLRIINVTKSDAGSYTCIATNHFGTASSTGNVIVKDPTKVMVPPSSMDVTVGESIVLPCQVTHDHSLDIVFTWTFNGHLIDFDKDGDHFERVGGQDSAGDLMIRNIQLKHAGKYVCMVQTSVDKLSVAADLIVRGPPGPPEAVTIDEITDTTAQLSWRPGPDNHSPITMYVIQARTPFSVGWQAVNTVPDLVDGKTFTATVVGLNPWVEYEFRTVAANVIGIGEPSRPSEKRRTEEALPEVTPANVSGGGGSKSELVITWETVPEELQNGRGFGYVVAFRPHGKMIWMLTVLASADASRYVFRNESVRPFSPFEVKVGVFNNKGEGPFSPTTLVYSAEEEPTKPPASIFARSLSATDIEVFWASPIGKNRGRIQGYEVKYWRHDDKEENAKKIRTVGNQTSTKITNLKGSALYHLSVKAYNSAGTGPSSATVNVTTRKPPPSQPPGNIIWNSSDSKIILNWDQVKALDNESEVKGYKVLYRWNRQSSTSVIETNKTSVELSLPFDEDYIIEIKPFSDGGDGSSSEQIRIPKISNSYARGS

Substance: E1 domain of zebrafish APLP2 (domain or fragment)
Kd [9]: 21.4 µM

Substance: FN1-FN3 region of human CNTN4 (from UniProt Q8IWV2 19-1000) (domain or fragment)
Kd [10]: 8 µM
Kd [6]: 1.5 µM
Kd [11]: 18.7 µM
koff [11]: 0.33 s⁻¹
kon [11]: 19200 M⁻¹ s⁻¹
Kd [7]: 4.8 µM
koff [7]: 0.2 s⁻¹
kon [7]: 43000 M⁻¹ s⁻¹
Kd [8]: 0.4 µM
koff [8]: 0.03 s⁻¹
kon [8]: 64500 M⁻¹ s⁻¹

Substance: FN1–FN3 region of chicken CNTN4 (domain or fragment)
Kd [12]: 28.2 µM
Kd [1]: 5.4 µM

Substance: E1 domain of zebrafish APPb (domain or fragment)
Kd [13]: 0.401 µM
Kd [9]: 0.4 µM
Kd [14]: 0.11 µM
koff [14]: 0.03 s⁻¹
kon [14]: 170000 M⁻¹ s⁻¹

Substance: FN1-FN3 region of human CNTN3 (from UniProt Q9P232 20-1002) (domain or fragment)
Kd [10]: 63.3 µM
Kd [6]: 9.1 µM
Kd [11]: 403 µM
koff [11]: 0.79 s⁻¹
kon [11]: 2560 M⁻¹ s⁻¹
Kd [8]: 4.5 µM
koff [8]: 0.1 s⁻¹
kon [8]: 2190 M⁻¹ s⁻¹

Substance: ectodomain of contactin 4 (CNTN4) fused to human IgG1 Fc or to FcYTS (from UniProt Q69Z26 19-1000) (Fc fusion)
luminescent signal [17]: 1.56e+06
luminescent signal divided by the signal of APP-FcYTS with Fc only [17]: 848

Substance: FN1-FN3 region of chicken CNTN3 (domain or fragment)
Kd [4]: 46.8 µM
Kd [3]: 182 µM
koff [3]: 0.9 s⁻¹
kon [3]: 7250 M⁻¹ s⁻¹

Next, values leading:

Kd [1]: 115 µM
Substance: FN1–FN3 region of chicken CNTN4, Y781A and E786A (domain or fragment)

Kd [2]: 26.6 µM
koff [2]: 0.33 s⁻¹
kon [2]: 21600 M⁻¹ s⁻¹
Kd [3]: 8.2 µM
koff [3]: 0.19 s⁻¹
kon [3]: 33900 M⁻¹ s⁻¹
Substance: FN1-FN3 region of chicken CNTN4 (domain or fragment)

Kd [4]: 115 µM
Kd [3]: 330 µM
koff [3]: 0.59 s⁻¹
kon [3]: 5450 M⁻¹ s⁻¹
Substance: FN1-FN3 region of chicken CNTN4 Y781A, E786A (domain or fragment)

Kd [5]: 38.6 µM
Kd [6]: 10.9 µM
Kd [7]: 36.6 µM
koff [7]: 0.37 s⁻¹
kon [7]: 9440 M⁻¹ s⁻¹
Kd [8]: 9.8 µM
koff [8]: 0.17 s⁻¹
kon [8]: 17700 M⁻¹ s⁻¹
Substance: FN1-FN3 region of human CNTN5 (from UniProt O94779 19-1072) (domain or fragment)

Kd [15]: 64.4 µM
koff [15]: 0.59 s⁻¹
kon [15]: 9560 M⁻¹ s⁻¹
Substance: FN1-FN3 region of zebrafish CNTN5 (domain or fragment)

fold reduction in affinity against wild-type chicken CNTN4 [1]: 4 fold
Substance: FN1–FN3 region of chicken CNTN4, T751A and V752A (domain or fragment)

Kd [16]: 26.8 µM
Substance: FN1–FN3 region of zebrafish CNTN5 (domain or fragment)

Kd [4]: 20.9 µM
Kd [3]: 441 µM
koff [3]: 0.38 s⁻¹
kon [3]: 10300 M⁻¹ s⁻¹
Substance: FN1-FN3 region of chicken CNTN4 T751A, V752A (domain or fragment)

Kd [18]: 2.9 µM
koff [18]: 0.15 s⁻¹
kon [18]: 56200 M⁻¹ s⁻¹
Substance: FN1-FN3 region of mouse CNTN3 (from UniProt Q07409 20-1002) (domain or fragment)
